The results in this text go back to publication PMC6546395 (eLife, 2019).

Assay [1] deals with T1, COMA complex (Ctf19/Okp1/Mcm21/Ame1) (S. cerevisiae, UniProt P38313 1-324; P53298 1-406; Q02732 1-369; Q06675 1-368).
T1 construct: Ame1 (CENP-U ortholog); Okp1 (CENP-Q ortholog); Ctf19 (CENP-P ortholog); open reading frame amplified from yeast genomic DNA; Mcm21 (CENP-O ortholog); The two heterodimers m7 and m12 together; copies: + + +
In words: cross-linking; Sli15-2xStrep-HA-6xHis/Ipl1 with Ame1/Okp1 and Ctf19/Mcm21 assembled on Strep-Tactin agarose (RT, 1 hr; 50 mM NaH2PO4 pH 8.0, 500 mM NaCl, 5% glycerol), eluted with biotin, re-isolated on Ni-NTA beads; BS3 0.25–0.5 mM, 30°C, 30 min; LC-MS/MS, xQuest. Particulars: both partners purified.

For assay [2], the target named is T1, COMA complex (Ctf19/Okp1/Mcm21/Ame1). In words: pull-down; Sli15-2xStrep-HA-6xHis/Ipl1 immobilised on Strep-Tactin Superflow agarose, 2-fold molar excess of the partners; 50 mM NaH2PO4 pH 8, 120 mM NaCl, 5% glycerol, 4°C, 1 hr; SDS-PAGE and Coomassie. Particulars: both partners purified.

T1 sequence (P38313 whole entry, chain 1 of 4): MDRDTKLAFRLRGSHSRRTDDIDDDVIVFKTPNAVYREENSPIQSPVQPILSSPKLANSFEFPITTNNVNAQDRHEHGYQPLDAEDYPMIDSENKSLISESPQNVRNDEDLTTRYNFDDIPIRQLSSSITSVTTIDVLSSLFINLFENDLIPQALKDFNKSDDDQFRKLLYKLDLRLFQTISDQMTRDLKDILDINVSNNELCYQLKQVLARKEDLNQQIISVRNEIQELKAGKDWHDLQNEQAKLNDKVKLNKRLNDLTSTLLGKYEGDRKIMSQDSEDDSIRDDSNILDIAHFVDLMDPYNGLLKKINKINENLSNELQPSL
T1 sequence (P53298 whole entry, chain 2 of 4): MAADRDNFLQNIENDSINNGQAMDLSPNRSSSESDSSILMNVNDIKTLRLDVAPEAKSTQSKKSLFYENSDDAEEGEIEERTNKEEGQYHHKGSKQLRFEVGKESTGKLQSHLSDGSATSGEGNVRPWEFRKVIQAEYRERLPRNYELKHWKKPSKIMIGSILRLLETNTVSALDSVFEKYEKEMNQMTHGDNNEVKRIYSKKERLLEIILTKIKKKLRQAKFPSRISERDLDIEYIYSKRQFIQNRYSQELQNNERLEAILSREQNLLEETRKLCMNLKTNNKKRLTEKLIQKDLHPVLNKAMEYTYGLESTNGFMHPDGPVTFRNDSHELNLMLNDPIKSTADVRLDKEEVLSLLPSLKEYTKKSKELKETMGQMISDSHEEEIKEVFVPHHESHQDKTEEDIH
T1 sequence (Q02732 whole entry, chain 3 of 4): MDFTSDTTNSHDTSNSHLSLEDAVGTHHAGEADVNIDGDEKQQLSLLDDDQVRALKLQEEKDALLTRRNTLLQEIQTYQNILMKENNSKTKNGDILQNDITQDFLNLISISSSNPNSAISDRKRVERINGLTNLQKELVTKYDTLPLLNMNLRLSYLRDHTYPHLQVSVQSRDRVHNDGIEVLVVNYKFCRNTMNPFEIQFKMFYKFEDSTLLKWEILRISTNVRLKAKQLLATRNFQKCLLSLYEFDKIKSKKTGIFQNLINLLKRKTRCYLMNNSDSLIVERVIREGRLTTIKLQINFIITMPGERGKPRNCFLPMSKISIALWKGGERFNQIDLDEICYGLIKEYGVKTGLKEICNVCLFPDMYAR
T1 sequence (Q06675 whole entry, chain 4 of 4): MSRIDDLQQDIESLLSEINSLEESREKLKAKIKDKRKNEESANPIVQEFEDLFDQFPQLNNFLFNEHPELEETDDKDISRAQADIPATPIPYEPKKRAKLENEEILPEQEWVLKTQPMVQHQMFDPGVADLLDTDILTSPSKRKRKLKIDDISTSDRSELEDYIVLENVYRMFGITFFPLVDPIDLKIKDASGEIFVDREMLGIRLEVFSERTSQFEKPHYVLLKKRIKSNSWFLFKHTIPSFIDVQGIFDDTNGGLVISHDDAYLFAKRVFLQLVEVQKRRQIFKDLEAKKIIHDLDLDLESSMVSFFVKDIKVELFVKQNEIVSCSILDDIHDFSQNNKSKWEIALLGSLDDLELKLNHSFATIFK

B1: Sli15/Ipl1 core chromosomal passenger complex (complex, S. cerevisiae)
chain 1: MDWAIKAARKKTQRKPGSTRSIIETLDDLNNLTTDAHSEINQRLYESSEWLRNNVYMNTLKYEDKKMEESLISPENTHNKMDVEFPKMKGEYELSNSQNDAAKDVTKTPRNGLHNDKSITPKSLRRKEVTEGMNRFSIHDTNKSPVEPLNSVKVDANESEKSSPWSPYKVEKVLRESSKTSESPINTKRFDNQTWAAKEEMENEPILQALKKAESVKVKPPPNSGIARSQRRSNMFVPLPNKDPLIIQHIPPTKSSGSIPKVRTVKESPIAFKKKSTINSPAIRAVENSDTAGSTKASSVFDRLSSIPTKSFENKISRGNVGHKYSSSSIDLTGSPMKKVSQKFKSINSTDTDMQEALRDIFSVKNKITKNNSPKGKNSRKSSIPRFDKTSLKLTTHKKLAIIAEQKKKSKHSSDVHKTGSRPHSISPTKISVDSSSPSKEVKNYYQSPVRGYLRPTKASISPNKNKNLTTSQTPHRLKIKEKTLRKLSPNIADISKPESRKSKNYRLTNLQLLPPAEAERDDLKKKFDKRLSGIMRSQQEHHRRKQEKQKRMSHLEQDLKKQTSFSNDYKDIRLKESLAPFDNHVRDTINKNTAFSTDNILATINTVDHREIIGNVTPKIASVNDSLPEINTDSEDEASVTLAAWAKSPYLQEQLIRQQDINPQTIFGPIPPLHTDEIFPNPRLNRLKPRQIVPKRS
chain 2: MQRNSLVNIKLNANSPSKKTTTRPNTSRINKPWRISHSPQQRNPNSKIPSPVREKLNRLPVNNKKFLDMESSKIPSPIRKATSSKMIHENKKLPKFKSLSLDDFELGKKLGKGKFGKVYCVRHRSTGYICALKVMEKEEIIKYNLQKQFRREVEIQTSLNHPNLTKSYGYFHDEKRVYLLMEYLVNGEMYKLLRLHGPFNDILASDYIYQIANALDYMHKKNIIHRDIKPENILIGFNNVIKLTDFGWSIINPPENRRKTVCGTIDYLSPEMVESREYDHTIDAWALGVLAFELLTGAPPFEEEMKDTTYKRIAALDIKMPSNISQDAQDLILKLLKYDPKDRMRLGDVKMHPWILRNKPFWENKRL
notes: Sli15 (INCENP ortholog), wild type; open reading frame amplified from yeast genomic DNA; Ipl1 (Aurora B ortholog); also called Sli15-2xStrep/Ipl1; Sli15-2xStrep-HA-6xHis/Ipl1; source: High Five insect cells (baculovirus), purified (Strep-Tactin Superflow agarose); not shown: 2xStrep, C-terminal, kept; HA, C-terminal, kept; 6xHis, C-terminal, kept
Regarding B1, the binding result in assay [1] was “binds”.

B2: dephosphorylated Sli15/Ipl1 (complex, S. cerevisiae)
chain 1: B1 chain 1
chain 2: B1 chain 2
modifications: basal phosphorylation removed with lambda phosphatase | basal phosphorylation removed with lambda phosphatase
notes: Sli15 (INCENP ortholog); open reading frame amplified from yeast genomic DNA; Ipl1 (Aurora B ortholog); also called Sli15/Ipl1 (dp); not shown: 2xStrep, C-terminal, kept; HA, C-terminal, kept; 6xHis, C-terminal, kept
Regarding B2, in assay [2], the binding result was “binds”.
